Results as given in PMC12521494.
“And” between values parts separate entries of the source, which are not always exact repeats. Identical values can stand only once.

Target: NbNRC2 (Nicotiana benthamiana)
Test: native gel or EMSA

stoichiometry N: 2 and 4
Substance: NbNRC2 (receptor)
